In publication PMC5382158 (Frontiers in Cellular and Infection Microbiology, 2017):

Tests used:
Assay in all cases: two-hybrid
[1] = target: NarI-T18 (M. tuberculosis)
[2] = target: T1, NarK2-T18 (M. tuberculosis, UniProt P9WJY7 1-395); details: partners not purified
T1 sequence: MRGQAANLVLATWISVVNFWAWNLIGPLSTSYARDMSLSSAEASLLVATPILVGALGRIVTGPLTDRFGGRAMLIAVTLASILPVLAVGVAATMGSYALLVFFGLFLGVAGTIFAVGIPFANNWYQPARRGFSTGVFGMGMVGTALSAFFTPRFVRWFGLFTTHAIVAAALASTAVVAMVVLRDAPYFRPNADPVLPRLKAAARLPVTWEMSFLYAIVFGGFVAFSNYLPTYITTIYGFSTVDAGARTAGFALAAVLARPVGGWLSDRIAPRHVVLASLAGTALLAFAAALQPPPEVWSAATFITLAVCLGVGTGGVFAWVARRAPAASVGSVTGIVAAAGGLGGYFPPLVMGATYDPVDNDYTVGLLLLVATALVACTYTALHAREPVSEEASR

[3] = target: T2, Rv2617c-T18 (M. tuberculosis, UniProt I6XER9 1-146); details: partners not purified
T2 sequence: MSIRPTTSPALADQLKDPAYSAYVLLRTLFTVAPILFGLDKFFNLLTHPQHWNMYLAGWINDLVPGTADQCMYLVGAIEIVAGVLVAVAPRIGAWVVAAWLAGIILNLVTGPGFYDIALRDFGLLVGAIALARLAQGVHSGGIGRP

KdpF-T25 (peptide)
β-galactosidase activity [1]: 720 Miller units

MTTVDNIVGLVIAVALMAFLFAALLFPEKF [KdpF-T25]
β-galactosidase activity [2]: 868 Miller units | β-galactosidase activity [3]: 1870 Miller units
